{"source": "patent US20260125469A1", "about": "(Hoffmann-La Roche, published 2026)", "binders": {"B1": {"name": "CEACAM5-TCB, CEACAM5 CD3 variant P033.078 (bispecific antibody, human IgG1, kappa, L234A L235A)", "heavy 1": "not shown", "heavy 2": "QVQLVQSGAEVKKPGSSVKVSCKASGFNIKDTYMHWVRQAPGQGLEWMGRIDPANGNSKYVPKFQGRVTITADTSTSTAYMELSSLRSEDTAVYYCAPFGYYVSDYAMAYWGQGTLVTVSSASTKGPSVFPLAPSSKSTSGGTAALGCLVEDYFPEPVTVSWNSGALTSGVHTFPAVLQSSGLYSLSSVVTVPSSSLGTQTYICNVNHKPSNTKVDEKVEPKSCDKTHTCPPCPAPEAAGGPSVFLFPPKPKDTLMISRTPEVTCVVVDVSHEDPEVKFNWYVDGVEVHNAKTKPREEQYNSTYRVVSVLTVLHQDWLNGKEYKCKVSNKALGAPIEKTISKAKGQPREPQVCTLPPSRDELTKNQVSLSCAVKGFYPSDIAVEWESNGQPENNYKTTPPVLDSDGSFFLVSKLTVDKSRWQQGNVFSCSVMHEALHNHYTQKSLSLSP", "light 1": "EIVLTQSPATLSLSPGERATLSCRAGESVDIFGVGFLHWYQQKPGQAPRLLIYRASNRATGIPARFSGSGSGTDFTLTISSLEPEDFAVYYCQQTNEDPYTFGQGTKLEIKRTVAAPSVFIFPPSDRKLKSGTASVVCLLNNFYPREAKVQWKVDNALQSGNSQESVTEQDSKDSTYSLSSTLTLSKADYEKHKVYACEVTHQGLSSPVTKSFNRGEC", "light 2": "EVQLLESGGGLVQPGGSLRLSCAASGFTFESYAMNWVRQAPGKGLEWVSRIRSKYNEYATYYADSVKGRFTISRDDSKNTLYLQMNSLRAEDTAVYYCVRASNFPSSFVSYFGYWGQGTLVTVSSASVAAPSVFIFPPSDEQLKSGTASVVCLLNNFYPREAKVQWKVDNALQSGNSQESVTEQDSKDSTYSLSSTLTLSKADYEKHKVYACEVTHQGLSSPVTKSFNRGEC", "notes": "2+1 IgG CrossFab, inverted; human IgG1 Fc, knob-into-hole, PGLALA; also called P033.078 in CEACAM5-TCB format"}, "B2": {"name": "anti-CD3 antibody clone P033.078 in monovalent IgG format (antibody)", "heavy": "not shown", "chain": "DKTHTCPPCPAPEAAGGPSVFLFPPKPKDTLMISRTPEVTCVVVDVSHEDPEVKFNWYVDGVEVHNAKTKPREEQYNSTYRVVSVLTVLHQDWLNGKEYKCKVSNKALGAPIEKTISKAKGQPREPQVCTLPPSRDELTKNQVSLSCAVKGFYPSDIAVEWESNGQPENNYKTTPPVLDSDGSFFLVSKLTVDKSRWQQGNVFSCSVMHEALHNHYTQKSLSLSP", "light": "EVQLLESGGGLVQPGGSLRLSCAASGFTFESYAMNWVRQAPGKGLEWVSRIRSKYNEYATYYADSVKGRFTISRDDSKNTLYLQMNSLRAEDTAVYYCVRASNFPSSFVSYFGYWGQGTLVTVSSASVAAPSVFIFPPSDEQLKSGTASVVCLLNNFYPREAKVQWKVDNALQSGNSQESVTEQDSKDSTYSLSSTLTLSKADYEKHKVYACEVTHQGLSSPVTKSFNRGEC", "notes": "also called monovalent IgG P033.078"}}, "key": {"[1]": {"target": "T1, Human CD3ε stalk-Fc(knob)-Avi/CD3δ stalk-Fc(hole) (human)", "T1 construct": "Heterodimer of CD3 delta and CD3 epsilon ectodomains fused to human Fc with knob-into-hole; also called human CD3ε/δ; CD3 antigen", "experiment": "SPR, TCB captured by anti-PG antibody, antigen as analyte, 25°C", "excerpt": "(§1) For affinity measurements, TCB molecules were captured on a C1 sensorchip (GE Healthcare) surface with immobilized anti-Fc(P329G) IgG (an antibody that specifically binds human IgG₁ Fc(P329G); “anti-PG antibody”—see WO 2017/072210, incorporated herein by reference). The experimental setup is schematically depicted in FIG. 3. Capture IgG was coupled to the sensorchip surface by direct immobilization of around 400 resonance units (RU) using the standard amine coupling kit (GE Healthcare Life Sciences).\n(§2) Kinetic constants were derived using the Biacore T200 Evaluation Software (GE Healthcare Life Sciences), to fit rate equations for 1:1 Langmuir binding by numerical integration. The half-life (t_{1/2}) of the interaction was calculated using the formula t_{1/2}=ln2/koff.\n(§3) To analyze the interaction to CD3, TCB molecules were captured for 240 s at 25 nM with a flow rate of 10 μl/min. Human and cynomolgus CD3F stalk-Fc(knob)-Avi/CD36-stalk-Fc(hole) were passed at a concentration of 0.14-100 nM with a flow rate of […] through the flow cells for 240 s. The dissociation was monitored for 800 s."}, "[2]": {"target": "T2, Cynomolgus CD3ε stalk-Fc(knob)-Avi/CD3δ stalk-Fc(hole) (cynomolgus)", "T2 construct": "also called cynomolgus CD3ε/δ", "experiment": "SPR, TCB captured by anti-PG antibody, antigen as analyte, 25°C", "excerpt": "as §1, §2, §3"}, "[3]": {"target": "T1, Human CD3ε stalk-Fc(knob)-Avi/CD3δ …", "experiment": "SPR on immobilized human CD3ε/δ after stress, relative to sample kept at -80°C pH 6", "experimental": "In order to assess the effect of the deamidation site removal and its effect on the stability of the antibodies, the optimized anti-CD3 antibodies (in TCB format) were incubated for 14 days at 37° C., pH 7.4 and at 40° C., pH 6 and further analyzed by SPR for their binding capability to human CD3ε/δ. Samples stored at −80° C. pH 6 were used as reference. The reference samples and the samples stressed at 40° C. were in 20 mM His, 140 mM NaCl, pH 6.0, and the samples stressed at 37° C. in PBS, pH 7.4, all at a concentration of 1.0 mg/ml. After the stress period (14 days) samples in PBS were dialyzed back to 20 mM His, 140 mM NaCl, pH 6.0 for further analysis.\n(§4) All SPR experiments were performed on a Biacore T200 instrument (GE Healthcare) at 25° C. with HBS-P+ (10 mM HEPES, 150 mM NaCl pH 7.4, 0.05% Surfactant P20) as running and dilution buffer. Biotinylated human CD3ε/δ (see Example 3, SEQ ID NOs 41 and 42) as well as biotinylated anti-huIgG (Capture Select, Thermo Scientific, #7103262100) were immobilized on a Series S Sensor Chip SA (GE Healthcare, #29104992), resulting in surface densities of at least 1000 resonance units (RU). Anti-CD3 antibodies with a concentration of 2 μg/ml were injected for 30 s at a flow rate of 5 μl/min, and dissociation was monitored for 120 s. The surface was regenerated by injecting 10 mM glycine pH 1.5 for 60 s. Bulk refractive index differences were corrected by subtracting blank injections and by subtracting the response obtained from a blank control flow cell. For evaluation, the binding response 5 seconds after injection end was taken. To normalize the binding signal, the CD3 binding was divided by the anti-huIgG response (the signal (RU) obtained upon capture of the CD3 antibody on the immobilized anti-huIgG antibody). The relative binding activity was calculated by referencing each temperature stressed sample to the corresponding, non-stressed sample.\nThe experiment was performed as described in Example 4, using the TCB molecules prepared in Example 7."}, "[4]": {"target": "T1, Human CD3ε stalk-Fc(knob)-Avi/CD3δ …", "experiment": "SPR, TCB captured by anti-PG antibody, antigen as analyte, 25°C", "remark": "listed apart in the source"}, "[5]": {"target": "human CD3 on cells (CD3ε) (human, UniProt P07766 23-207)", "sequence (P07766 23-207 limits assumed)": "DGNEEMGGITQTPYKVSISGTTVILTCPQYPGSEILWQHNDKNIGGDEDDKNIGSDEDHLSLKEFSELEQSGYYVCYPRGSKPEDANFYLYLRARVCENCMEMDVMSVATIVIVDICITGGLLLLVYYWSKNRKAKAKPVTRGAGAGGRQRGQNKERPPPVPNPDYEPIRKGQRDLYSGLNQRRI", "experiment": "cell-based or functional assay"}, "[6]": {"target": "T1, Human CD3ε stalk-Fc(knob)-Avi/CD3δ …", "experiment": "SPR, monovalent IgG captured by anti-PG antibody, antigen as analyte, 25°C"}, "[7]": {"target": "T1, Human CD3ε stalk-Fc(knob)-Avi/CD3δ …", "experiment": "SPR on immobilized human CD3ε/δ after stress, relative to sample kept at -80°C pH 6", "experimental": "as §4\nThe experiment was performed as described in Example 4, using the monovalent IgG molecules prepared in Example 19.", "remark": "listed apart in the source"}, "[8]": {"target": "T1, Human CD3ε stalk-Fc(knob)-Avi/CD3δ …", "experiment": "SPR, monovalent IgG captured by anti-PG antibody, antigen as analyte, 25°C", "experimental": "(§5) SPR experiments were performed as described in Example 3, with the monovalent IgG molecules prepared in Example 19.\n(§6) To analyze the interaction to CD3, IgG molecules were captured for 240 s at 50 nM with a flow rate of 5 μl/min. Human and cynomolgus CD3F stalk-Fc(knob)-Avi/CD36-stalk-Fc(hole) were passed at a concentration of 0.061-250 nM with a flow rate of […] through the flow cells for 300 s. The dissociation was monitored for 800 s.", "remark": "listed apart in the source"}, "[9]": {"target": "T2, Cynomolgus CD3ε stalk-Fc(knob)-Avi/CD3δ …", "experiment": "SPR, monovalent IgG captured by anti-PG antibody, antigen as analyte, 25°C", "experimental": "as §5, §6"}}, "note": "Where two headings read alike, the source gives them in different places."}
{"binder": "B1", "values": [{"measurement": "Kd", "setting": "[1]", "result": 0.562, "unit": "nM"}, {"measurement": "koff", "setting": "[1]", "result": 0.000886, "unit": "s⁻¹"}, {"measurement": "kon", "setting": "[1]", "result": "1.59e+06", "unit": "M⁻¹ s⁻¹"}, {"measurement": "t1/2", "setting": "[1]", "result": 13, "unit": "min"}, {"measurement": "Kd", "setting": "[2]", "result": 0.324, "unit": "nM"}, {"measurement": "koff", "setting": "[2]", "result": 0.000675, "unit": "s⁻¹"}, {"measurement": "kon", "setting": "[2]", "result": "2.08e+06", "unit": "M⁻¹ s⁻¹"}, {"measurement": "t1/2", "setting": "[2]", "result": 17.1, "unit": "min"}, {"measurement": "binding activity [%] after 2 weeks at pH 6.0/40°C", "setting": "[3]", "result": 101, "unit": "%"}, {"measurement": "binding activity [%] after 2 weeks at pH 7.4/37°C", "setting": "[3]", "result": 99, "unit": "%"}, {"measurement": "fold higher binding half-life than CD3orig", "setting": "[4]", "result": "> 3", "unit": "fold"}, {"measurement": "EC50 24 h (pM), T-cell mediated lysis of CEACAM5-expressing LS180 tumor cells", "setting": "[5]", "result": 58, "unit": "pM"}, {"measurement": "EC50 48 h (pM), T-cell mediated lysis of CEACAM5-expressing LS180 tumor cells", "setting": "[5]", "result": 36.1, "unit": "pM"}]}
{"binder": "B2", "values": [{"measurement": "fold higher binding half-life than CD3orig", "setting": "[6]", "result": "> 2", "unit": "fold"}, {"measurement": "binding activity [%] after 2 weeks at pH 6.0/40°C", "setting": "[7]", "result": 98, "unit": "%"}, {"measurement": "binding activity [%] after 2 weeks at pH 7.4/37°C", "setting": "[7]", "result": 95, "unit": "%"}, {"measurement": "Kd", "setting": "[8]", "result": 0.771, "unit": "nM"}, {"measurement": "koff", "setting": "[8]", "result": 0.00133, "unit": "s⁻¹"}, {"measurement": "kon", "setting": "[8]", "result": "1.73e+06", "unit": "M⁻¹ s⁻¹"}, {"measurement": "t1/2", "setting": "[8]", "result": 8.69, "unit": "min"}, {"measurement": "Kd", "setting": "[9]", "result": 0.403, "unit": "nM"}, {"measurement": "koff", "setting": "[9]", "result": 0.00104, "unit": "s⁻¹"}, {"measurement": "kon", "setting": "[9]", "result": "2.6e+06", "unit": "M⁻¹ s⁻¹"}, {"measurement": "t1/2", "setting": "[9]", "result": 11.1, "unit": "min"}]}
